Experimental data: patent US20120316071A1 (published 2012)
Values belong to the binder of their own block, whether it stands above or below them.

How the values were obtained:
[1] = target: T1, rHuman ErbB2/Fc Chimera, CF (R&D Systems Cat#1129-ER) (human, UniProt P04626 23-652); experiment: ECL multispot (MSD) assay, antigen spotted on plate; blank spot of this row 511
T1 construct: Bought recombinant protein; also called human epidermal growth factor 2 receptor; Fc part of the bought chimera not given

[2] = target: T2, rHuman EGF R/Fc Chimera, CF (R&D Systems Cat#344-ER) (human, UniProt P00533 25-645); experiment: as above
T2 construct: Bought recombinant protein; also called epidermal growth factor receptor; Fc part of the bought chimera not given

[3] = target: T3, rHuman HGF R/c-MET/Fc Chimera, CF (R&D Systems Cat#358-MT/CF) (human, UniProt P08581 25-932); experiment: as above
T3 construct: Bought recombinant protein; also called HGF R/Fc; hepatocyte growth factor receptor; Fc part of the bought chimera not given

[4] = target: T4, rHuman Notch-1/Fc Chimera, CF (R&D Systems Cat#3647-TK) (human, UniProt P46531 19-526); experiment: as above
T4 construct: Bought recombinant protein; Fc part of the bought chimera not given

[5] = target: T5, rHuman CD44/Fc Chimera, CF (R&D Systems Cat#3660-CD) (human, UniProt P16070 21-220); experiment: as above
T5 construct: Bought recombinant protein; Fc part of the bought chimera not given

[6] = target: T6, rHuman IGF-1 sR, (IGF-1 sR), CF (R&D Systems Cat#391-GR) (human, UniProt P08069 31-932); experiment: as above
T6 construct: Bought recombinant soluble receptor; also called insulin-like growth factor-1 soluble receptor

[7] = target: T7, rHuman P-Cadherin/Fc Chimera, CF (R&D Systems Cat#861-PC) (human, UniProt P22223 108-654); experiment: as above
T7 construct: Bought recombinant protein; Fc part of the bought chimera not given

[8] = target: T8, rHuman Erythropoietin R/Fc Chimera, CF (R&D Systems Cat#963-ER) (human, UniProt P19235 25-250); experiment: as above
T8 construct: Bought recombinant protein; also called EPO R; EPO R/Fc; Fc part of the bought chimera not given
T8 sequence (looked up): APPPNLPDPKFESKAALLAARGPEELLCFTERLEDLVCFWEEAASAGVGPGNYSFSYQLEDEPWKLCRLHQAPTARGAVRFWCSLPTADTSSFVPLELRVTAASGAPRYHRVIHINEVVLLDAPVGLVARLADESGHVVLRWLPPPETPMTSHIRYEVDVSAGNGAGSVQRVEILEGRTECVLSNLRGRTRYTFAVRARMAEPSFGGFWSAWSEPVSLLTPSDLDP

[9] = target: T9, Recombinant Human DLL4 (R&D Systems Cat#1506-D4/CF) (human, UniProt Q9NR61 27-524); experiment: as above
T9 construct: Bought recombinant protein; also called delta-like protein 4; rHuman DLL4

[10] = target: T10, rHuman CD44/Fc Chimera, CF (human, UniProt P16070 21-220); experiment: ECL multispot (MSD) assay, antigen spotted on the plate, Fab in solution; blank spot of the same well 298
T10 construct: Bought from R&D Systems; Fc part of the bought chimera not given

[11] = target: T11, rHuman IGF-1 sR, (IGF-1 sR), CF (human, UniProt P08069 31-932); experiment: as above
T11 construct: Bought from R&D Systems as a soluble receptor; also called insulin-like growth factor-1 soluble receptor

[12] = target: T12, rHuman P-Cadherin/Fc Chimera, CF (human, UniProt P22223 108-654); experiment: as above
T12 construct: Bought from R&D Systems; Fc part of the bought chimera not given

[13] = target: T13, rHuman Erythropoietin R/Fc Chimera, CF (human, UniProt P19235 25-250); experiment: as above
T13 construct: Bought from R&D Systems; also called EPO R; EPO R/Fc; Fc part of the bought chimera not given
T13 sequence (looked up): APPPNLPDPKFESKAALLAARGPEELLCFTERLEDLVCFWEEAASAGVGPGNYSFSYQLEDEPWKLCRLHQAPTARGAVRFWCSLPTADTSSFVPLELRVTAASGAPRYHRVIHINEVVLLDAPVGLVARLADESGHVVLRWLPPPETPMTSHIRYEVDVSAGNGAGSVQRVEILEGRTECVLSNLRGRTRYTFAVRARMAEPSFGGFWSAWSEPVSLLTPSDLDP

Recombinant Human DLL4 = target: T14, Recombinant Human DLL4 (human, UniProt Q9NR61 27-524); experiment: as above
T14 construct: Bought from R&D Systems; also called delta-like protein 4; rHuman DLL4

[14] = target: T15, rHuman ErbB2/Fc Chimera, CF (human, UniProt P04626 23-652); experiment: as above
T15 construct: Bought from R&D Systems; also called human epidermal growth factor 2 receptor; Fc part of the bought chimera not given

[15] = target: T16, rHuman EGF R/Fc Chimera, CF (human, UniProt P00533 25-645); experiment: as above
T16 construct: Bought from R&D Systems; also called epidermal growth factor receptor; Fc part of the bought chimera not given

[16] = target: T17, rHuman HGF R/c-MET/Fc Chimera, CF (human, UniProt P08581 25-932); experiment: as above
T17 construct: Bought from R&D Systems; also called HGF R/Fc; hepatocyte growth factor receptor; Fc part of the bought chimera not given

[17] = target: T18, rHuman Notch-1/Fc Chimera, CF (human, UniProt P46531 19-526); experiment: as above
T18 construct: Bought from R&D Systems; Fc part of the bought chimera not given

[18] = target: T1, rHuman ErbB2/Fc Chimera, CF (R&D …); experiment: ECL multispot (MSD) assay, antigen spotted on plate; blank spot of this row 294
[19] = target: T2, rHuman EGF R/Fc Chimera, CF (R&D …); experiment: as above
[20] = target: T3, rHuman HGF R/c-MET/Fc Chimera, CF (R&D …); experiment: as above
[21] = target: T4, rHuman Notch-1/Fc Chimera, CF (R&D …); experiment: as above
[22] = target: T5, rHuman CD44/Fc Chimera, CF (R&D Systems …); experiment: as above
[23] = target: T6, rHuman IGF-1 sR, (IGF-1 sR), CF (R&D …); experiment: as above
[24] = target: T7, rHuman P-Cadherin/Fc Chimera, CF (R&D …); experiment: as above
[25] = target: T8, rHuman Erythropoietin R/Fc Chimera, CF …; experiment: as above
[26] = target: T9, Recombinant Human DLL4 (R&D Systems …); experiment: as above
[27] = target: T1, rHuman ErbB2/Fc Chimera, CF (R&D …); experiment: ECL multispot (MSD) assay, antigen spotted on plate; blank spot of this row 332
[28] = target: T2, rHuman EGF R/Fc Chimera, CF (R&D …); experiment: as above
[29] = target: T3, rHuman HGF R/c-MET/Fc Chimera, CF (R&D …); experiment: as above
[30] = target: T4, rHuman Notch-1/Fc Chimera, CF (R&D …); experiment: as above
[31] = target: T5, rHuman CD44/Fc Chimera, CF (R&D Systems …); experiment: as above
[32] = target: T6, rHuman IGF-1 sR, (IGF-1 sR), CF (R&D …); experiment: as above
[33] = target: T7, rHuman P-Cadherin/Fc Chimera, CF (R&D …); experiment: as above
[34] = target: T8, rHuman Erythropoietin R/Fc Chimera, CF …; experiment: as above
[35] = target: T9, Recombinant Human DLL4 (R&D Systems …); experiment: as above

T3 sequence (P08581 25-932, change not shown): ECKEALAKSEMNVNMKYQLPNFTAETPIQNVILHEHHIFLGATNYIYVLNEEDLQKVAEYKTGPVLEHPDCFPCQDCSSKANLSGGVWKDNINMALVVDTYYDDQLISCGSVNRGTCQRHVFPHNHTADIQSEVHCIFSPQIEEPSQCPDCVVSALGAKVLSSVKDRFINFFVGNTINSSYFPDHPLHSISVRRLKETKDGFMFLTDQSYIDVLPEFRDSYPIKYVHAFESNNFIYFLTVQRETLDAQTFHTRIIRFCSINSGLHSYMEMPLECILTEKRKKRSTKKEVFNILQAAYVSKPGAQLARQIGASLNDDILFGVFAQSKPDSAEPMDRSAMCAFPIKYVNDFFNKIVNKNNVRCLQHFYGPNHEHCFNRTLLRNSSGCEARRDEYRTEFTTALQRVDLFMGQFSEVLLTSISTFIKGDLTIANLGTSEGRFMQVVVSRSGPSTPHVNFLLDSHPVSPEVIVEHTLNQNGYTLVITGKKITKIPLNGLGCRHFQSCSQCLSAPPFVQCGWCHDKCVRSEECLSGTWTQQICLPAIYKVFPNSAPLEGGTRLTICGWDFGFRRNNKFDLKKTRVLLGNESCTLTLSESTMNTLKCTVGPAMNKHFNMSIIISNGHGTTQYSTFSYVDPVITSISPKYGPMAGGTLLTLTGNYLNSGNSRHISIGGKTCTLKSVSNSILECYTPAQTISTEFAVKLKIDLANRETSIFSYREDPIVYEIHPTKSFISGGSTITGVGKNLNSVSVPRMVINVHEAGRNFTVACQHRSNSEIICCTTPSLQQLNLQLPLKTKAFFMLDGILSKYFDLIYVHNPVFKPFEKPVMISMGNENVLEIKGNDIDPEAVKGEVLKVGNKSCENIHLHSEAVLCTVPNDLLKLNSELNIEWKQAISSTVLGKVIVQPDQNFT
T17 sequence (P08581 25-932, change not shown): as above

- ECL signal [1]: 262
- ECL signal [2]: 355
- ECL signal [3]: 221
- ECL signal [4]: 334
- ECL signal [5]: 370
- ECL signal [6]: 505
- ECL signal [7]: 471
- ECL signal [8]: 522
- ECL signal [9]: 179000
B1: Fab VH1-46_IGHD6-6*01_IGHJ1*01 S102A/S103P/S104F/H111F (APFF) & L6_IGKJ1*01 S31K (Fab, V domains shown)
VH: QVQLVQSGAEVKKPGASVKVSCKASGYTFTSYYMHWVRQAPGQGLEWMGIINPSGGSTSYAQKFQGRVTMTRDTSTSTVYMELSSLRSEDTAVYYCAREEYAPFSAEYFQFWGQGTLVTVSS
VL: EIVLTQSPATLSLSPGERATLSCRASQSVSKYLAWYQQKPGQAPRLLIYDASNRATGIPARFSGSGSGTDFTLTISSLEPEDFAVYYCQQRSNWPPWTFGQGTKVEIKR
notes: Fab made in E. coli: VH cloned into Plasmid A (CH1, His6 and Flag tags), kappa VL into Plasmid C (kappa CL); also called APFF / S31K

- ECL signal [10]: 423
- ECL signal [11]: 374
- ECL signal [12]: 270
- ECL signal [13]: 465
- ECL signal (Recombinant Human DLL4): 166000
- ECL signal [14]: 313
- ECL signal [15]: 331
- ECL signal [16]: 261
- ECL signal [17]: 358
B2: Fab VH1-46_IGHD6-6*01_IGHJ1*01 S102A/S103P/S104F/H111F (APFF) & L6_IGKJ1*01 S31R (Fab, V domains shown)
VH: QVQLVQSGAEVKKPGASVKVSCKASGYTFTSYYMHWVRQAPGQGLEWMGIINPSGGSTSYAQKFQGRVTMTRDTSTSTVYMELSSLRSEDTAVYYCAREEYAPFSAEYFQFWGQGTLVTVSS
VL: EIVLTQSPATLSLSPGERATLSCRASQSVSRYLAWYQQKPGQAPRLLIYDASNRATGIPARFSGSGSGTDFTLTISSLEPEDFAVYYCQQRSNWPPWTFGQGTKVEIKR
notes: Tested as an E. coli Fab; The heavy chain carries CH1 with His6 and Flag tags from plasmid A, the light chain a kappa CL from plasmid C; also called APFF / S31R; H:APFF & L6_IGKJ1*01 S31R

- ECL signal [18]: 197
- ECL signal [19]: 246
- ECL signal [20]: 300
- ECL signal [21]: 267
- ECL signal [22]: 384
- ECL signal [23]: 379
- ECL signal [24]: 342
- ECL signal [25]: 363
- ECL signal [26]: 178000
B3: Fab VH1-46_IGHD6-6*01_IGHJ1*01 S102A/S103P/S104F/H111F (APFF) & L6_IGKJ1*01 S31N (Fab, V domains shown)
VH: QVQLVQSGAEVKKPGASVKVSCKASGYTFTSYYMHWVRQAPGQGLEWMGIINPSGGSTSYAQKFQGRVTMTRDTSTSTVYMELSSLRSEDTAVYYCAREEYAPFSAEYFQFWGQGTLVTVSS
VL: EIVLTQSPATLSLSPGERATLSCRASQSVSNYLAWYQQKPGQAPRLLIYDASNRATGIPARFSGSGSGTDFTLTISSLEPEDFAVYYCQQRSNWPPWTFGQGTKVEIKR
notes: Fab made in E. coli: VH cloned into Plasmid A (CH1, His6 and Flag tags), kappa VL into Plasmid C (kappa CL); also called APFF / S31N

- ECL signal [27]: 285
- ECL signal [28]: 351
- ECL signal [29]: 432
- ECL signal [30]: 261
- ECL signal [31]: 384
- ECL signal [32]: 303
- ECL signal [33]: 332
- ECL signal [34]: 423
- ECL signal [35]: 191000
B4: Fab VH1-46_IGHD6-6*01_IGHJ1*01 S102A/S103P/S104F/H111F (APFF) & L6_IGKJ1*01 S31T (Fab, V domains shown)
VH: QVQLVQSGAEVKKPGASVKVSCKASGYTFTSYYMHWVRQAPGQGLEWMGIINPSGGSTSYAQKFQGRVTMTRDTSTSTVYMELSSLRSEDTAVYYCAREEYAPFSAEYFQFWGQGTLVTVSS
VL: EIVLTQSPATLSLSPGERATLSCRASQSVSTYLAWYQQKPGQAPRLLIYDASNRATGIPARFSGSGSGTDFTLTISSLEPEDFAVYYCQQRSNWPPWTFGQGTKVEIKR
notes: Fab made in E. coli: VH cloned into Plasmid A (CH1, His6 and Flag tags), kappa VL into Plasmid C (kappa CL); also called APFF / S31T
